The results in this text go back to US20170298096A1 (CANIMGUIDE THERAPEUTICS, published 2017).

No end group written: not given here. A value given as a limit tells only on which side of the number the result lay.

To fix the notation:
T1: His-tagged P3028 (human, also: His-tag, terminus and sequence not given here)
T1 construct: used in solution in the PEPSCAN (rampo) ELISA; also called PGE73; His-tag-P3028; not shown: His tag
T1 peptide: VFDEFKPLVEEPQNLIK

B1: SEQ ID NO 270 (peptide)
peptide: EKLDTFFVKLSLFTER
B2: SEQ ID NO 301 (peptide)
peptide: KKLVTFFVKLSLFTER
B3: SEQ ID NO 328 (peptide)
peptide: KKLDTFFLKLSLFTER
notes: also called P28R with L at position 8
B4: SEQ ID NO 325 (peptide)
peptide: KKLDTFVVKLSLFTER
B5: SEQ ID NO 302 (peptide)
peptide: KKLWTFFVKLSLFTER
B6: SEQ ID NO 314 (peptide)
peptide: KKLDTIFVKLSLFTER
B7: SEQ ID NO 309 (peptide)
peptide: KKLDRFFVKLSLFTER
B8: SEQ ID NO 319 (peptide)
peptide: KKLDTVFVKLSLFTER
B9: SEQ ID NO 312 (peptide)
peptide: KKLDYFFVKLSLFTER
B10: SEQ ID NO 318 (peptide)
peptide: KKLDTTFVKLSLFTER
B11: SEQ ID NO 322 (peptide)
peptide: KKLDTFQVKLSLFTER
B12: SEQ ID NO 313 (peptide)
peptide: KKLDTAFVKLSLFTER
B13: SEQ ID NO 300 (peptide)
peptide: KKLITFFVKLSLFTER
B14: SEQ ID NO 298 (peptide)
peptide: KKLATFFVKLSLFTER
B15: SEQ ID NO 284 (peptide)
peptide: KKDDTFFVKLSLFTER
B16: SEQ ID NO 290 (peptide)
peptide: KKKDTFFVKLSLFTER
B17: SEQ ID NO 297 (peptide)
peptide: KKVDTFFVKLSLFTER
B18: SEQ ID NO 292 (peptide)
peptide: KKNDTFFVKLSLFTER
B19: SEQ ID NO 272 (peptide)
peptide: HKLDTFFVKLSLFTER
B20: SEQ ID NO 280 (peptide)
peptide: TKLDTFFVKLSLFTER
B21: SEQ ID NO 317 (peptide)
peptide: KKLDTPFVKLSLFTER
B22: SEQ ID NO 283 (peptide)
peptide: KKCDTFFVKLSLFTER
B23: SEQ ID NO 277 (peptide)
peptide: PKLDTFFVKLSLFTER
B24: SEQ ID NO 294 (peptide)
peptide: KKRDTFFVKLSLFTER
B25: SEQ ID NO 289 (peptide)
peptide: KKIDTFFVKLSLFTER
B26: SEQ ID NO 273 (peptide)
peptide: IKLDTFFVKLSLFTER
B27: SEQ ID NO 316 (peptide)
peptide: KKLDTNFVKLSLFTER
B28: SEQ ID NO 271 (peptide)
peptide: GKLDTFFVKLSLFTER
B29: SEQ ID NO 296 (peptide)
peptide: KKTDTFFVKLSLFTER
B30: SEQ ID NO 282 (peptide)
peptide: KKADTFFVKLSLFTER
B31: SEQ ID NO 288 (peptide)
peptide: KKHDTFFVKLSLFTER
B32: SEQ ID NO 278 (peptide)
peptide: QKLDTFFVKLSLFTER
B33: SEQ ID NO 285 (peptide)
peptide: KKEDTFFVKLSLFTER
B34: SEQ ID NO 321 (peptide)
peptide: KKLDTFMVKLSLFTER
B35: SEQ ID NO 323 (peptide)
peptide: KKLDTFSVKLSLFTER
B36: SEQ ID NO 326 (peptide)
peptide: KKLDTFFFKLSLFTER
notes: also called P28R with F at position 8
B37: SEQ ID NO 287 (peptide)
peptide: KKGDTFFVKLSLFTER
B38: SEQ ID NO 291 (peptide)
peptide: KKMDTFFVKLSLFTER
B39: SEQ ID NO 295 (peptide)
peptide: KKSDTFFVKLSLFTER
B40: SEQ ID NO 286 (peptide)
peptide: KKFDTFFVKLSLFTER
B41: SEQ ID NO 306 (peptide)
peptide: KKLDNFFVKLSLFTER
B42: SEQ ID NO 327 (peptide)
peptide: KKLDTFFGKLSLFTER
notes: also called P28R with G at position 8
B43: SEQ ID NO 320 (peptide)
peptide: KKLDTFLVKLSLFTER
B44: SEQ ID NO 311 (peptide)
peptide: KKLDWFFVKLSLFTER
B45: SEQ ID NO 276 (peptide)
peptide: NKLDTFFVKLSLFTER
B46: SEQ ID NO 281 (peptide)
peptide: VKLDTFFVKLSLFTER
B47: SEQ ID NO 274 (peptide)
peptide: LKLDTFFVKLSLFTER
B48: SEQ ID NO 293 (peptide)
peptide: KKQDTFFVKLSLFTER
B49: SEQ ID NO 307 (peptide)
peptide: KKLDPFFVKLSLFTER
B50: SEQ ID NO 305 (peptide)
peptide: KKLDMFFVKLSLFTER
B51: SEQ ID NO 275 (peptide)
peptide: MKLDTFFVKLSLFTER
B52: SEQ ID NO 324 (peptide)
peptide: KKLDTFTVKLSLFTER
B53: SEQ ID NO 279 (peptide)
peptide: RKLDTFFVKLSLFTER
B54: SEQ ID NO 310 (peptide)
peptide: KKLDSFFVKLSLFTER
B55: SEQ ID NO 308 (peptide)
peptide: KKLDQFFVKLSLFTER
B56: SEQ ID NO 315 (peptide)
peptide: KKLDTMFVKLSLFTER
B57: SEQ ID NO 303 (peptide)
peptide: KKLYTFFVKLSLFTER
B58: SEQ ID NO 299 (peptide)
peptide: KKLETFFVKLSLFTER
B59: SEQ ID NO 304 (peptide)
peptide: KKLDCFFVKLSLFTER

This test deals with T1, His-tagged P3028. In words: PEPSCAN ELISA (rampo).
Protocol: After washing, the peroxidase substrate 2,2′-azine-di-3-ethylbenzthiazoline sulfonate (ABTS) and 2 μL of 3% H2O2 were added. The binding capacity of the mAb was measured as a color development at 405 nm (optical density, OD405). The color development was quantified with a charge-coupled device (CCD)—camera and an image processing system.
The OD405-values obtained by a CCD-camera was considered as raw data values (“rampo values,” “rampo units,” or “rampo scores”). […] First the CCD-camera made a picture of the card before peroxidase coloring and then again a picture after the peroxidase coloring. […] These values were copied into an excel file and labeled as a raw data file. One follow-up manipulation was allowed. Sometimes a well can contain an air-bubble resulting in a false-positive value. If manual inspection of the cards detect an air-bubble the value are set to 0 for that well.
Take B1: the “rampo score relative to the P28R control sample” value was ≥ 98 % of P28R control. Still for that read-out and setting: under B2 stands ≥ 98 % of P28R control. As for B3, the RAMPO Score was not below 302 rampo units and the “rampo score relative to the P28R control sample” value was ≥ 98 % of P28R control.

Take B4: the “rampo score relative to the P28R control sample” value was ≥ 98 % of P28R control. Turning to B5, the “rampo score relative to the P28R control sample” value is ≥ 98 % of P28R control. On the same count and under the same terms, then B6, with ≥ 98 % of P28R control; and B7, with ≥ 98 % of P28R control. On the same count and under the same terms, under B8 stands ≥ 98 % of P28R control; under B9, ≥ 98 % of P28R control. Take B10: the “rampo score relative to the P28R control sample” value was ≥ 98 % of P28R control. Still for that read-out and setting: under B11 stands ≥ 98 % of P28R control. Still for that read-out and setting: under B12 stands ≥ 98 % of P28R control; under B13, ≥ 98 % of P28R control. Turning to B14, the “rampo score relative to the P28R control sample” value was ≥ 98 % of P28R control. In the case of B15, the “rampo score relative to the P28R control sample” value was ≥ 98 % of P28R control. On to B16, for which the “rampo score relative to the P28R control sample” value was ≥ 98 % of P28R control. In the case of B17, the “rampo score relative to the P28R control sample” value was ≥ 98 % of P28R control.

In the case of B18, the “rampo score relative to the P28R control sample” value was ≥ 98 % of P28R control. Turning to B19, the “rampo score relative to the P28R control sample” value was ≥ 98 % of P28R control. On the same count and under the same terms, under B20 stands ≥ 98 % of P28R control. The same measure, in the same setting: then B21, with ≥ 98 % of P28R control; and B22, with ≥ 98 % of P28R control. On to B23, for which the “rampo score relative to the P28R control sample” value was ≥ 98 % of P28R control. Take B24: the “rampo score relative to the P28R control sample” value was ≥ 98 % of P28R control. On to B25, for which the “rampo score relative to the P28R control sample” value is ≥ 98 % of P28R control.

Consider B26, for which the “rampo score relative to the P28R control sample” value is ≥ 98 % of P28R control.

B27: the “rampo score relative to the P28R control sample” value was ≥ 98 % of P28R control.

For B28, the “rampo score relative to the P28R control sample” value was ≥ 98 % of P28R control. With B29, the “rampo score relative to the P28R control sample” value is ≥ 98 % of P28R control. On to B30, for which the “rampo score relative to the P28R control sample” value was ≥ 98 % of P28R control.

For B31, the “rampo score relative to the P28R control sample” value is ≥ 98 % of P28R control. The same measure, in the same setting: under B32 stands ≥ 98 % of P28R control; under B33, ≥ 98 % of P28R control.

Turning to B34, the “rampo score relative to the P28R control sample” value was ≥ 98 % of P28R control. In the case of B35, the “rampo score relative to the P28R control sample” value was ≥ 98 % of P28R control. For the molecule B36, the RAMPO Score is not below 302 rampo units and the “rampo score relative to the P28R control sample” value is ≥ 98 % of P28R control. For the molecule B37, the “rampo score relative to the P28R control sample” value is ≥ 98 % of P28R control. On to B38, for which the “rampo score relative to the P28R control sample” value is ≥ 98 % of P28R control. On to B39, for which the “rampo score relative to the P28R control sample” value is ≥ 98 % of P28R control. The same measure, in the same setting: under B40 stands ≥ 98 % of P28R control; under B41, ≥ 98 % of P28R control.

As to B42, the RAMPO Score was not below 302 rampo units and the “rampo score relative to the P28R control sample” value is ≥ 98 % of P28R control. As to B43, the “rampo score relative to the P28R control sample” value was ≥ 98 % of P28R control. In the case of B44, the “rampo score relative to the P28R control sample” value is ≥ 98 % of P28R control. The same measure, in the same setting: under B45 stands ≥ 98 % of P28R control; under B46, ≥ 98 % of P28R control; under B47, ≥ 98 % of P28R control. As for B48, the “rampo score relative to the P28R control sample” value is ≥ 98 % of P28R control. Consider B49, for which the “rampo score relative to the P28R control sample” value was ≥ 98 % of P28R control. For the molecule B50, the “rampo score relative to the P28R control sample” value was ≥ 98 % of P28R control.

Consider B51, for which the “rampo score relative to the P28R control sample” value was ≥ 98 % of P28R control. Same read-out and setting: under B52 stands ≥ 98 % of P28R control; under B53, ≥ 98 % of P28R control.

B54: the “rampo score relative to the P28R control sample” value is ≥ 98 % of P28R control.

Regarding B55, the “rampo score relative to the P28R control sample” value is ≥ 98 % of P28R control.

Consider B56, for which the “rampo score relative to the P28R control sample” value was ≥ 98 % of P28R control. On to B57, for which the “rampo score relative to the P28R control sample” value was ≥ 98 % of P28R control. Same read-out and setting: then B58, with ≥ 98 % of P28R control; and B59, with ≥ 98 % of P28R control.
